T1: human Desmoglein2 (Dsg2) (human, UniProt Q14126 50-1118)
T1 construct: whole, on cells; also called Dsg2-expressing cells
T1 sequence (looked up): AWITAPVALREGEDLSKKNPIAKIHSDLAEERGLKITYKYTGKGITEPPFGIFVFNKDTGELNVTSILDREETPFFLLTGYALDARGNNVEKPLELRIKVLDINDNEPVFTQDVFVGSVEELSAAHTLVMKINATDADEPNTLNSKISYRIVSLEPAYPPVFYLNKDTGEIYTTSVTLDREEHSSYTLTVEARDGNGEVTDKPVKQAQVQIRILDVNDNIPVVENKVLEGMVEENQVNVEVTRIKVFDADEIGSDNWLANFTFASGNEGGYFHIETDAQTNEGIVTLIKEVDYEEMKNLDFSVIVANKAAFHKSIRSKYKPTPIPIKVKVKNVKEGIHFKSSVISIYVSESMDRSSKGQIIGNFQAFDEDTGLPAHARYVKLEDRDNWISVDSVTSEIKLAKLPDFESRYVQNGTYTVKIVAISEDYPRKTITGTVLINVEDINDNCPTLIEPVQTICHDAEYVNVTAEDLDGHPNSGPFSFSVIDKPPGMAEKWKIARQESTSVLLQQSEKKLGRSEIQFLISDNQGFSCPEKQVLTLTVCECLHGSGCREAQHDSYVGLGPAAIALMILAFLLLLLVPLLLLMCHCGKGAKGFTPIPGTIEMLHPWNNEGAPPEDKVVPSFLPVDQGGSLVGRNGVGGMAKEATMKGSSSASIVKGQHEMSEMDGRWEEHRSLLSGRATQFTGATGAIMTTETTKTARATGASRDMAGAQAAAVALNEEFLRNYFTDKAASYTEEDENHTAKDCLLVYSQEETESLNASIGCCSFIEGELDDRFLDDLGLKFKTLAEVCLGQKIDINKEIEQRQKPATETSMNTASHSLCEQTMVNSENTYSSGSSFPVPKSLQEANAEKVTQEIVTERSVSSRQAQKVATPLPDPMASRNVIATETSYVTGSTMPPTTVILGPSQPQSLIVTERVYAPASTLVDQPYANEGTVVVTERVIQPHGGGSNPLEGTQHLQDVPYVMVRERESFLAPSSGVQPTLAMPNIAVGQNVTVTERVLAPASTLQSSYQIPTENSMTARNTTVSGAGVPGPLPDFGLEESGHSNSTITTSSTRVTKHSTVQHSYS


Biological target: T1, human Desmoglein2 (Dsg2)
Test: flow cytometry and Western blotting, Dsg2 knockdown and Dsg2 over-expression cells

binding result	Binder
binds	Dsg2 monoclonal antibody 3D4 (antibody, V domains shown, Mouse hybridoma antibody from BALB/c mice, detected with anti-mouse IgG Fc-gamma specific antibody; also called mAb 3D4) VH: QIQLVQSGPELKKPGETVKISCKASGYTFTNYGMNWVRQAPGKALKWMVWMNTNTGESIYAEEFKGRFVFSLDTSASTAYLQINNLNNEDTATYFCARYWDTYWGQGTTLTVSS VL: DIKMTQSPSSMYASLGERVTITCKASQDINSYLSWFQQKPGKSPKTLIYRANRLVDGVPSRFSGSGSGQDFSLTISSLEYEDMGIYYCLQYDEFPYTFGGGTKLEIK
binds	Dsg2 monoclonal antibody 13D3 (antibody, V domains shown, Mouse hybridoma antibody from BALB/c mice, detected with anti-mouse IgG Fc-gamma specific antibody; also called mAb 13D3) VH: QVQLQQPGAELVKPGASVKLSCKASGYTFTSYYMYWVKQRPGQGLEWIGGINPNNGGTNFNEKFKSKATLTVDKSSSTAYMQLRSLTSEDSAVYYCIRGSGYGNWGQGTLVTVSA VL: DIKMTQSPSSMYASLGERVTITCKASQDINGYLSWFQQKPGKSPKTLIYRANRLVDGVPSRFSGSGSGQDYSLTISSLEYEDMGIYYCLQYDEFPYTFGGGTKLEIK
